Measurements reported in publication PMC9300613 (2022).

Molecular target: bovine brain αβ-tubulin (taxol-stabilised microtubules, dolastatin-induced rings or DARPin-capped free dimer … (bovine, UniProt Q6B856 1-445))
Experiment: AMPPNP

Chain of bovine brain αβ-tubulin (taxol-stabilised microtubules, dolastatin-induced rings or DARPin-capped free dimer … (chain, as listed by the source, chain 1 of 2): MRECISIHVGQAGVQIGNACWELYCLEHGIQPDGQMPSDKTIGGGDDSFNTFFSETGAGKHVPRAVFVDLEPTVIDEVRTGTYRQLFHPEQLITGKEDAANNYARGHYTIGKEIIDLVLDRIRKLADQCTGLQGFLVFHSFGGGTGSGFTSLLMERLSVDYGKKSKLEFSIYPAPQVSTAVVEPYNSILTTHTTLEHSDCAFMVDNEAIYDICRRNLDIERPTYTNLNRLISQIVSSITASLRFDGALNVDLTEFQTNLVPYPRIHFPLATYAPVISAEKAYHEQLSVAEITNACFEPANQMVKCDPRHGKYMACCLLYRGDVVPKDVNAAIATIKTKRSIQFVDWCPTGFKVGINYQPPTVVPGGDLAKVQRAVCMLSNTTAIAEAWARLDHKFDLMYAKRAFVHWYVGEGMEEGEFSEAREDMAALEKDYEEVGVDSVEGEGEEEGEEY
Chain of bovine brain αβ-tubulin (taxol-stabilised microtubules, dolastatin-induced rings or DARPin-capped free dimer … (Q6B856 whole entry, chain 2 of 2): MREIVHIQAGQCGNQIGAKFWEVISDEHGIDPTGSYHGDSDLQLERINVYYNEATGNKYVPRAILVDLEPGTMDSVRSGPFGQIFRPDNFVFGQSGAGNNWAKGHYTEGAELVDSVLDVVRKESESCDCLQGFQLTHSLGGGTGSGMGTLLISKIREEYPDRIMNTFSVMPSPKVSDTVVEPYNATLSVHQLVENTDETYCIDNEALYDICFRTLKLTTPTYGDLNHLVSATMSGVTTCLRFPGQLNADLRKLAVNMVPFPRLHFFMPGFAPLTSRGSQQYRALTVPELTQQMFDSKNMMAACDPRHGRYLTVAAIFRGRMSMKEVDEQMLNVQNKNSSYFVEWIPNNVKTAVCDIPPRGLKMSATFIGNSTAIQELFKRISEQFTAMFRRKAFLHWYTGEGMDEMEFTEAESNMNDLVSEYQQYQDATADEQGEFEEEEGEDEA

B1: CaKip3-MDN (Candida albicans Kip3 motor domain and slightly truncated neck-linker, residues 1-436) (domain or fragment)
chain: MSYPNSLGSPATVTSTSVPTAKQSSISVAVRVRPFTEAESNRLVKIDNDDVFLGDGCLTSDNNNNNNNSNSNGNGNGNGSSAANSSGASTSRRAIFNTLGGLRKIINVVDDRMLIFDPPETNPLTKMQRNAFPNSFKGSRIREHRFVFDRLFDEDCTQDQVYRNTTQPLLDSVLDGYNATVFAYGATGCGKTHTISGTPEDPGVIFLTMKELYNRIEELKDTKIIDISLSYLEIYNETIRDLLNPMTQCKNLVIREDANNKISVSNLSRHRPNSVEEVMQLILEGNKNRTCSPTEANATSSRSHAVLQINVIQKDRTGDITEEHTFATLSIIDLAGSERAAATKNRGARLNEGANINKSLLALGNCINALCDPRRRNHVPYRDSKLTRLLKFSLGGNCKTVMIVCVSPSSQHYDETLNTLKYADRAKEIKTKLIRN
Kd: 0.043 µM

B2: HsKHC-MDN (human kinesin-1 heavy chain KIF5B construct equivalent to CaKip3-MDN) (domain or fragment)
chain: MADLAECNIKVMCRFRPLNESEVNRGDKYIAKFQGEDTVVIASKPYAFDRVFQSSTSQEQVYNDCAKKIVKDVLEGYNGTIFAYGQTSSGKTHTMEGKLHDPEGMGIIPRIVQDIFNYIYSMDENLEFHIKVSYFEIYLDKIRDLLDVSKTNLSVHEDKNRVPYVKGCTERFVCSPDEVMDTIDEGKSNRHVAVTNMNEHSSRSHSIFLINVKQENTQTEQKLSGKLYLVDLAGSEKVSKTGAEGAVLDEAKNINKSLSALGNVISALAEGSTYVPYRDSKMTRILQDSLGGNCRTTIVICCSPSSYNESETKSTLLFGQRAKTIKNTVCVN
Kd: 0.35 µM
